Measurements as given in a protein production outcome set (Wang et al. 2014).

assay: label from the status in PepcDB records
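Note: failed if final PepcDB status was selected cloned or expressed and not failed if soluble or beyond.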

Sequence	protein production
EKQSIHRTQLEALDSVITDLETSAQKGISLTEPEIFASLLETCYSLRAIDHGVRVHHLIPPYLLRNNLGISSKLVRLYASCGYAEVAHEVFDRMSKRDSSPFAWNSLISGYAELGQYEDAMALYFQMAEDGVKPDRFTFPRVLKACGGIGSVQIGEAIHRDLVKEGFGYDVYVLNALVVMYAKCGDIVKARNVFDMIPHKDYVSWNSMLTGYLHHGLLHEALDIFRLMVQNGIEPDKVAISSVLARVLSFKHGRQLHGWVIRRGMEWELSVANALIVLYSKRGQLGQACFIFDQMLERDTVSWNAIISAHSKNSNGLKYFEQMHRANAKPDGITFVSVLSLCANTGMVEDGERLFSLMSKEYGIDPKMEHYACMVNLYGRAGMMEEAYSMIVQEMGLEAGPTVWGALLYACYLHGNTDIGEVAAQRLFELEPDNEHNFELLIRIYSKAKRAEDVERVRQMMVDRGLET	not failed
ELGLRSKTNVVSLDKIIIDKKSSLITGFPEFRMVWKVVRQRVVDDLVSVLDTDYLDMELIPNLTRQIAEQSIYSYIENGLKLLIDYAQKEITIDHSSDRDKILMDIGKDPYVVSIKSKVYLQDGRQFQFTESRHKLEKFRFVDFAKRKK	not failed
ELHAELVKRQHLETFLKTQIESELVDVYFQPIIETRTGNVVKFEALARFYHENSEYSTQEMISIIEDLELIAALDDVVCQTALKQWSHLQKIYGENIGLSINRSLNTKLDSLQVLQRSLDLIKASDVNPKLVTIELTETAYFEQDEEHAFALEQIRQEGIQIAIDDFGTGYSSFSYLEEGQFDVLKIDRKFVKNIHEGSTSYNIVKTITDLAHKLNVEVVAEGVESQRELEVLAGIGVDYMQGFLFSQA	failed
ELPKKRELCKFYITGFCARAENCPYMHGDFPCKLYHTTGNCINGDDCMFSHDPLTEETRELLDKMLADDAEAGAEDEKEVEELKK	not failed
EMVLLPAPQIPLIMKIMKNHTPTWLPGVPTLYEKIVAEATAKGVEIKGIRNSFSGASTLPVRTVEDWENLTGGLLVEGYGLTETSPVLCGNPMNGNRRPGYIGVPFPDTEIRIANPDNLDETMPDGEAGEVLARGPQIFQGYLNKPEATAATFHGDWFRTGDMGVMEEDGFIRLVSRIKEIIITGGFNVYPAEVEEALIAHPDVDDAAVVGRPRKDGSEDVVACIVLKDGAALDPEGLKTHCRKLLTRYKVPRTFYHFEALNKDQLGKVRRREVQQTLLERLGEK	failed
ENDVRVETTLHQNTRIYDVRGQLFFSSSERFAKAFDFQENVAHVIIDLTHSHIWDVTTVASLDHIVDKFQKNGIQVTVKGLNEASSIMIEQYGTHSKI	failed
ENPRNVGSLDKTSKNVGTGLVGAPACGDVMKLQIQVDEKGKIVDARFKTFGCGSAIASSSLATEWVKGKTVEEALTIKNTDIAKELCLPPVKLHCSMLAEDAIKAALADYKLKQESK	not failed
EPAHGRQHTPCLFCDRLFASAEETFSHCKLEHQFNIDSMVHKHGLEFYGYIKLINFIRLKNPTVEYMNSIYNPVPWEKDEYLKPVLEDDLLLQFDVEDLYEPVSTPFS	not failed
EPLKDAVLIEGLPGIGHVGRVAAEHIVEEFNGEKVLELYCDDFPPQIVVKNDGTIEYMKNEFYLVKEPVPMVIVLGNTQALSPKGQYVLSEKIVDIAMKYGATKTYTLGGFGIGKISDELKVYVASTSKELSEQHKELGAEFRTDGGSIIGAAGLMLKFSKLKGIEGICLMGETPGYLVDPKSAGNVLEMLSKAIGFEIDMKKLDERAKEMEKFIEKVQMQEQGMQAPQHQDDLSYIG	failed
EPNRLIKEKSPYLLQHAYNPVDWYPWGEEAFEKARKENKPVFLSIGYSTCHWCHMMAHESFEDEEVAGLMNEAFVSIKVDREERPDIDNIYMTVCQIILGRGGWPLNIIMTPGKKPFFAGTYIPKNTRFNQIGMLELVPRIKEIWEQQHEEVLDSAEKITSTIQEMIKESSG	not failed
EPVLCSRTTCRAVLNPLCQVDYRAKLWACNFCYQRNQFPPSYAGISELNQPA	not failed
EQQADGTWLMDGWISIRKASNLLEHDLVDEAERYSTLGGYLLWQFGYIPAAGEQITVDGLIFEIVSVNKHNIGKVRVHRTQPENE	not failed
EQYEIGVKPPKPANITATYTGGVLTVRVTENGKTLTLTSNVTMPTGTGPFPVVIGMNARTGQLPTNLFNGVIQIPFNHDQVAKYTQGDRDPSYPFFQLYPNLTSNGYYSAWAWGISRLIDGIELVQAQLNADTKRIAVTGCSYAGKMALFAGAFDERIALTIAQESGGGGVNAWRVSETIGNVEKISNTNYAWFMQSLKTNFQNGNAVKLPYDHHELMAMIAPRALLVLGNPPFEWLGDESGYVSSRAAQEVWTTLGVPERFGFSFRGGHDHCSLPSASNAEVTAFVDKFLR	failed
ERATPPVEPRQPPEAQPAERIVAERIVQELVRAGANLNNVRTMLRNVMDNNAVAFSRVEWNILLQHFPDMHTNGISSDSVLANELRQTLRQVVHQQRTQRALAPILSPAPSRPVASSSRSSQRTLLGRFTGWMAPRQTSSSSQAT	failed
ESEKSFRILFEKSPEGFLILDGGGNILEANPAALGMLGEEMEALQGRGVFELLQGEKIPLKEEEMNQKIERIYENRLGQEVLLETILIPAQVEGKARIFAIWRDVT	failed
ETEDQTNMIAIQADGCYIVDALTPIEDFNERFNAEFPDDDYDTIGGLVTEAIGHLPETGDELTIGRFAFRVAKANARRIHILHVTVLP	not failed

Sequence	protein production
EYGYEDLRESSNSLLNHQLSEIDQARLYSCLDHMREVLGDAVPDDILTEAILKHKFDVQKALSVVLEQDG	not failed
EYISVKSQNELLEASTPHPGTRNHIPQLDVDANELALVYRARGMSEADAEQKAAEAFVNLRNAEDQAIIDEPRNDEPING	failed
FFTPPHIVQLCVRLVDDFADGMTFHDPTVGSGGMLTEAAKYYREAQGGDPSKLTFTGQEINPDIAAIARMNLSLHTLNGEIERGDSLASPGFTDGDDLERFDRVLANFPFSADWAKDDLQDDQYGRFDWHTKLPRADRGDYAFIMHIAEQLKEPDCGDESGGKAAIVIPHGVLFRKHEQRYRQPMLENDLVEAIVGLPENLFQNNSIPSAILVLNTDKPADREGEVQFIHAADEAFYEELSNQNELTDDGLDHIVENFDDWTTE	failed
FGLETVSENELAHSEEELRIILSESYKSGEINQSEFKYVNKIFEFDDRLAKEIMIPRTEIVSLPHDIKISEMMDIIQIEKYTRYPVEEGDKDNIIGVINIKEVLTACISGEVSVDSTISQFVNPIIHVIESAPIQDLLVKMQKERVHMAILSDEYGGTAGLVTVEDIIEEIVGEIR	not failed
FGVWVLVPRSFPRCVWFQRSMAVVIRLQGLPIVAGTMDIRHFFSGLTIPDGGVHIVGGELGEAFIVFATDEDARLGMMRTGGTIKGSKVTLLLSSKTEMQNMIELSRRRFETANLDIPPANASRSGPPPSSGMSSRVNLPTTVSNFNNPSPSVVTATTSVHESNKNIQTFSTASVGTAPPNMGASFGSPTFSSTVPSTASPMNTVPPPPIPPIPAMPSLPPMPSIPPIPVPPPVPTLPPVPPVPPIPPVPSVPPMTPLPPMSGMPPLNPPPVAPLPAGMNGSGAPMNLNNNLNPMFLGPLNPVNPIQMNSQSSVKPLPINPDDLYVSVHGMPFSAMENDVRDFFHGLRVDAVHLLKDHVGRNNGNGLVKFLSPQDTFEALKRNRMLMIQRYVEVSPATERQWVAAGGHITFKQNMGPSGQTHPPPQTLPRSKSPSGQKRSRSRSPHEAGFCVYLKGLPFEAENKHVIDFFKKLDIVEDSIYIAYGPNGKATGEGFVEFRNEADYKAALCRHKQYMGNRFIQVHPITKKGMLEKIDMIRKRLQNFSYDQREMILNPEGDVNSAKVCAHITNIPFSITKMDVLQFLEGIPVDENAVHVLVDNNGQGLGQALVQFKNEDDARKSERLHRKKLNGREAFVHVVTLEDMREIEKNPPAQGKKGLKMPVPGNPAVPGMPNAGLPGVGLPSAGLPGAGLPSTGLPGSAITSAGLPGAGMPSAGIPSAGGEEHAFLTVGSKEANNGPPFNFPGNFGGSNAFGPPIPPPGLGGGAFGDARPGMPSVGNSGLPGLGLDVPGFGGGPNNLSGPSGFGGGPQNFGNGPGSLGGPPGFGSGPPGLGSAPGHLGGPPAFGPGPGPGPGPGPIHIGGPPGFASSSGKPGPTVIKVQNMPFTVSIDEILDFFYGYQVIPGSVCLKYNEKGMPTGEAMVAFESRDEATAAVIDLNDRPIGSRKVKLVLG	not failed
FPPGTPLELGKEIAVYRIDGPVFFGAAERFATFLRDEPEVKYLILRLRFVPNMDTTGLVALEDIYHDLERHNCRLILTGLQPEVKQLLERTGLLKTIGLSNCFETTTDAICSISPQIQRCSQP	failed
FSTFDSKYDRFLRGEEKLTDQEELGRVLISSTQFTNCNTCHEIRGAKGLEDGLFTNHKYFNIGVPANTSVRAVNGSKPDAVDLGLAQNPAVAGDPAQRGKFKVPTLRNVAVTGPYMHNGVFKDLRTVVLFYVKYKSKKPSRQINPETGKTWDAPEVPENIAMTELTSAPALDDKRVDAIVAFLKTLTDRRYEHLLPKEDGQTAAPT	failed
FTLEEEDITGTWYVKAMVVDKDFPEDRRPRKVSPVKVTALGGGNLEATFTFMREDRCIQKKILMRKTEEPGKFSAYGGRKLIYLQELPGTDDYVFYCKDQRRGGLRYMGKLVGRNPNTNLEALEEFKKLVQHKGLSEEDIFMPLQTGSCVLEH	failed
FTPDYIFTSKIDTSYVRQDIVPEINGWNIDRWIEEIACNDNQVVKLLWQVINDSMNGNYTRKKAIFFVGDGNNGKGTFQELLSNVIGYSNIASLKVNEFDERFKLSVLEGKTAVIGDDVPVGVYVDDSSNFKSVVTGDPVLVEFKNKPLYRATFKCTVIQSTNGMPKFKDKTGGTLRRLLIVPFNANFNGIKENFKIKEDYIKNQQVLEYVLYKAINLDFET	failed
GAPFRSTVTLQPTSGSLVNLTEWPPFVITLDDVELVHFERVQFHLRNFDMIFVFKEYNKKVAMVNAIPMNMLDHVKEWLNSCDIRYSEGVQSLNWQKIMKTITDDP	failed
GAPGPCGLARQNSTSLTGKPGALPANLDDMKVAELKQELKLRSLPVSGTKTELIERLRAYQDQISPVPGAPKAPAATSILHKAGEVVVAFPAARLST	failed
GASDGGGSIRIPASFSGLIGLKPSRGSMPVGPEGWRGWQGASIDFALTISMRDTKALFYGLRGSHSGAPYQAPLAEWQTHPKKQRLKIALCTASPIGSLISPEATQAAKQAADFLAAAGHEIIEIPYPVDGAALIRSYYQMNGAETTAMMNSIQQGLGRPIRKEEIESFSWTMHQFGQKIPAATYVHSLQLWDQAAVTMEELFQKFDLFLSPTTAFSAPKINEDLQSEHIRQRMAQAAELTEAELAELIYDYFDKSLQLTPYTQLANLTGQPAISLPTHVTATGLPLGIQLLAARGREDLLFQVGEQFEQEGK	failed
GCTLSAEERAALERSKAIEKNLKEDGISAAKDVKLLLLGAGESGKSTIVKQMKIIHEDGFSGEDVKQYKPVVYSNTIQSLAAIVRAMDTLGIEYGDKERKADAKMVCDVVSRMEDTEPFSAELLSAMMRLWGDSGIQECFNRSREYQLNDSAKYYLDSLDRIGAADYQPTEQDILRTRVKTTGIVETHFTFKNLHFRLFDVGGQRSERKKWIHCFEDVTAIIFCVALSGYDQVLHEDETTNRMHESLKLFDSICNNKWFTDTSIILFLNKKDIFEEKIKKSPLTICFPEYTGPSAFTEAVAYIQAQYESKNKSAHKEIYTHVTCATDTNNIQFVFDAVTDVIIAKNLRGCGLY	failed
GDFGRHSITSGGSGGGGFRQRGSSGSSSRHTERGYSSGRSGASSYNGREGGGSGFNRREVYGGGRDSSRYSSGSSASYGRTGGQSAGRFRSRSPVGNHRF	failed
GDIGGIAQITSSLFLGRGSVASNRHLLQARGITCIVNATIEIPNFNWPQFEYVKVPLADMPHAPIGLYFDTVADKIHSVSRKHGATLVHCAAGVSRSATLCIAYLMKFHNVCLLEAYNWVKARRPVIRPNVGFWRQLIDYERQLFGKSTVKMVQTPYGIVPDVYEKESRHLMPYWG	failed
